Test results as given in paper PMC3176292, “Mutations in Protein-Binding Hot-Spots on the Hub Protein Smad3 Differentially Affect Its Protein Interactions and Smad3-Regulated Gene Expression” (PLoS ONE, 2011).
Blank lines part the entries; values can stand above or below the binder they belong to.

Key:
Conditions in all cases: partners not purified
[1] = target: T1, Ski Smad-binding domain (amino acids 2–56) on the 3xFlag-thioredoxin scaffold (UniProt P12755 2-56); assay: co-IP; LUMIER: Renilla luciferase-Smad3 and Flag-tagged partner co-expressed with constitutively active Alk5 in HEK-293; Flag protein captured from cleared lysate (TNE: 10 mM Tris-HCl pH 7.8, 150 mM NaCl, 1 mM EDTA, 1% Igepal CA-630) on anti-Flag 96-well plates, 2 h at 4 °C; co-precipitated Renilla luciferase activity, TrxGA background subtracted, percent of wild-type Smad3
T1 construct: Ski, amino acids 2–56; cloned into the unique RsrII site of pCI-3xFLAG-Trx; also called Ski aa2–56; TrxSki; source: HEK-293, transfected, in lysate
T1 sequence (looked up): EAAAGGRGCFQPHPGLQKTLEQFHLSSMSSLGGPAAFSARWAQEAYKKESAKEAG

[2] = target: T2, Smurf2 Smad-binding domain (amino acids 252–330) on the Flag-thioredoxin scaffold (UniProt Q9HAU4 252-330); assay: as above
T2 construct: Smurf2, amino acids 252–330; also called Smurf2 aa252–330; TrxSmurf2; source: HEK-293, transfected, in lysate

[3] = target: T3, SARA Smad-binding domain (amino acids 665–721) on the 3xFlag-thioredoxin scaffold (UniProt O95405 767-823); assay: as above
T3 construct: SARA, amino acids 665–721; cloned into the unique RsrII site of pCI-3xFLAG-Trx; also called SARA aa665–721; TrxSARA; source: HEK-293, transfected, in lysate
T3 sequence (looked up): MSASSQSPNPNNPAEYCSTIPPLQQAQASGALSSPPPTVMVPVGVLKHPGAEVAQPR

[4] = target: T3, SARA Smad-binding domain (amino acids …); assay: co-IP; LUMIER as a1 but without co-expression of the activated Alk5 kinase (Smad3 not phosphorylated); percent of phosphorylated wild-type Smad3
Flag-Smad4, full length = target: T4, Flag-Smad4, full length (UniProt Q13485 1-552); assay: co-IP; LUMIER: Renilla luciferase-Smad3 and Flag-tagged partner co-expressed with constitutively active Alk5 in HEK-293; Flag protein captured from cleared lysate (TNE: 10 mM Tris-HCl pH 7.8, 150 mM NaCl, 1 mM EDTA, 1% Igepal CA-630) on anti-Flag 96-well plates, 2 h at 4 °C; co-precipitated Renilla luciferase activity, TrxGA background subtracted, percent of wild-type Smad3
T4 construct: Smad4; plasmid pCMV5-Flag-Smad4 (from J. Massagué); also called Smad4 FL; source: HEK-293, transfected, in lysate
T4 sequence (looked up): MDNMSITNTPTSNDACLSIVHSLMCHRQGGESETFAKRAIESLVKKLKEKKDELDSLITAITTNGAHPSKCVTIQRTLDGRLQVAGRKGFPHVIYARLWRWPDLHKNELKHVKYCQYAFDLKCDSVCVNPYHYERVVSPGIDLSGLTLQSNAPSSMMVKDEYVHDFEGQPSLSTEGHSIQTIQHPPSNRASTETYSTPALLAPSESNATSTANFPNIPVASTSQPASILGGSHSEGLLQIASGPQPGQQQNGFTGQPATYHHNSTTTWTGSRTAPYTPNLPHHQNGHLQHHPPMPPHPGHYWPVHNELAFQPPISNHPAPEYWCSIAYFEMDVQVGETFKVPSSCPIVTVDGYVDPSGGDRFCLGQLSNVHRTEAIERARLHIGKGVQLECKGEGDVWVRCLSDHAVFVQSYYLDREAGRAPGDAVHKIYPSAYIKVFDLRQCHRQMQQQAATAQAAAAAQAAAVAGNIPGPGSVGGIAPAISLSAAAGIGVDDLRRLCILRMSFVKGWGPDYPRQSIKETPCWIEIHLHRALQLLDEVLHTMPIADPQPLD

T2 sequence (Q9HAU4 252-330): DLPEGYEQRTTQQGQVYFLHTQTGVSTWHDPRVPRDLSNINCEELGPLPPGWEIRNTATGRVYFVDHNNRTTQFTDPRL

percent binding relative to wild-type Smad3 [1]: 100%
percent binding relative to wild-type Smad3 [2]: 100%
percent binding relative to wild-type Smad3 [3]: 100%
B1: Renilla luciferase-Smad3 wild type, co-expressed with constitutively active Alk5 (phosphorylated Smad3) (natural protein, UniProt P84022 1-425, looked up)
chain: MSSILPFTPPIVKRLLGWKKGEQNGQEEKWCEKAVKSLVKKLKKTGQLDELEKAITTQNVNTKCITIPRSLDGRLQVSHRKGLPHVIYCRLWRWPDLHSHHELRAMELCEFAFNMKKDEVCVNPYHYQRVETPVLPPVLVPRHTEIPAEFPPLDDYSHSIPENTNFPAGIEPQSNIPETPPPGYLSEDGETSDHQMNHSMDAGSPNLSPNPMSPAHNNLDLQPVTYCEPAFWCSISYYELNQRVGETFHASQPSMTVDGFTDPSNSERFCLGLLSNVNRNAAVELTRRHIGRGVRLYYIGGEVFAECLSDSAIFVQSPNCNQRYGWHPATVCKIPPGCNLKIFNNQEFAALLAQSVNQGFEAVYQLTRMCTIRMSFVKGWGAEYRRQTVTSTPCWIELHLNGPLQWLDKVLTQMGSPSIRCSSVS
modifications: phosphorylated by the co-expressed activated Alk5 kinase (sites not given)
notes: Smad3; plasmid pCMV5-hRLuc-Smad3 (from J. Wrana); also called Smad3 WT+Alk5; Renilla-Smad3; source: HEK-293, transfected together with constitutively active Alk5, in lysate

percent binding relative to wild-type Smad3 [4]: 78%
B2: Renilla luciferase-Smad3 wild type, without Alk5 (not phosphorylated) (natural protein, UniProt P84022 1-425, looked up)
chain: B1 chain
notes: Smad3; also called Smad3 WT, No Alk5; source: HEK-293, transfected without Alk5, in lysate

percent binding relative to wild-type Smad3 [1]: 4%
percent binding relative to wild-type Smad3 (Flag-Smad4, full length): 132%
percent binding relative to wild-type Smad3 [2]: 86%
percent binding relative to wild-type Smad3 [3]: 61%
B3: Renilla luciferase-Smad3 QPSMT/SE mutant (residues 252–256 and 266–267 changed to the Smad1 equivalents STSVL/NKN) (natural protein, UniProt P84022 1-425, looked up)
chain: MSSILPFTPPIVKRLLGWKKGEQNGQEEKWCEKAVKSLVKKLKKTGQLDELEKAITTQNVNTKCITIPRSLDGRLQVSHRKGLPHVIYCRLWRWPDLHSHHELRAMELCEFAFNMKKDEVCVNPYHYQRVETPVLPPVLVPRHTEIPAEFPPLDDYSHSIPENTNFPAGIEPQSNIPETPPPGYLSEDGETSDHQMNHSMDAGSPNLSPNPMSPAHNNLDLQPVTYCEPAFWCSISYYELNQRVGETFHASSTSVLVDGFTDPSNNKNRFCLGLLSNVNRNAAVELTRRHIGRGVRLYYIGGEVFAECLSDSAIFVQSPNCNQRYGWHPATVCKIPPGCNLKIFNNQEFAALLAQSVNQGFEAVYQLTRMCTIRMSFVKGWGAEYRRQTVTSTPCWIELHLNGPLQWLDKVLTQMGSPSIRCSSVS
notes: Smad3 with two stretches replaced by those of Smad1; source plasmid pcDNA3-Flag-Smad3(STSVL/NKN) from K. Miyazono; assayed as Renilla fusion; also called Smad3(STSVL/NKN); Smad1/3 chimeric protein; source: HEK-293, transfected together with constitutively active Alk5, in lysate
